From the supplement of paper PMC9170038

Test system: MS2 coat protein
Experiment: apparent KD of MS2 coat protein; designed switch direction (-1 OFF switch, 1 ON switch): -1; higher = weaker reporter binding
How it was run: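 Stalled E. coli RNA polymerase transcribed designed RNA switches on Illumina chips, which were then titrated with SNAP-549-labelled MS2 coat protein, doubling from 0.7 or 1.5 nM to 3 µM. Steps lasted from 0.8–1.5 h at the lowest concentration to 10–20 min at the highest. The apparent KD is each design's median over clusters of curve-fitted normalised fluorescence.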

[1] = Eterna round: R95, input ligand: FMN 200 uM
[2] = Eterna round: R95, input ligand: microRNA oligo, concentration not stated
[3] = Eterna round: R95, input ligand: none
[4] = input ligand: microRNA oligo, concentration not stated

Sequence | apparent KD of MS2 coat protein [1] [nM] | apparent KD of MS2 coat protein [2] [nM] | apparent KD of MS2 coat protein [3] [nM] | apparent KD of MS2 coat protein (input ligand: FMN 200 uM) [nM] | apparent KD of MS2 coat protein (input ligand: none) [nM] | apparent KD of MS2 coat protein [4] [nM]
UUAGGCGUCAUUGCUCGUCUUUUAUGGAGAUGACUGUUAACAUGAGGAUCACCCAUGUGUGUGGGAGCUUUGCAGUU [JR_SV3TOV2_Sub023] (puzzle: Sensor v3, turn-off variant 2) | 213 | 568 | 270 | – | – | –
UUAGUGUUAGGAUAUAAUCAUAUAAGCUGUAAGGUGUAUGAUUAGAAGGGACAUGAGGAUCACCCAUGUCGUGA [Eternabot (L1) Solution 94] (Eterna round: R97, puzzle: Exclusion 4) | – | – | – | 23.1 | 20.1 | –
UUAUAAAGUGUGAGGAUAUGCUGGUCCUUGGAUCAGCAGAAGGCACAUGAGGAUCACCCAUGUAAUAUAUUUUU [JL bmx4 3.08] (puzzle: Brourd's mod of Exclusion 4) | – | 68.2 | – | – | – | –
UUAUAACAUGAGGAUCACCCAUGUUAGGAUAUCAGGUACGAGCGCCGUGCUCAGGCCCUGAGAAGGAGCAUGGC [Eternabot (L1) Solution 36] (Eterna round: R97, puzzle: Exclusion 1) | – | – | – | 14.9 | 18.6 | –
UUAUACAAGCAAAGAUCCCACAUGAGGAUCACCCAUGUGCUCGUCUUAUAAGGUACUGUGACGAAAGUCACGGUACC [Eli 87 + Mat D67 6] (Eterna round: R97, puzzle: Sensor, turn-off variant 1) | – | – | – | 42.3 | 41.6 | –
UUAUUAAAUGUAGGAUAUGCAUAUUAUUAUUAUGCAGAAGGACAUGAGGAUCACCCAUGUAUAUUAUUAUUAUUUAUUAUUUAU [Title] (Eterna round: R96, puzzle: Exclusion NG 1) | – | – | – | – | – | 35.5
UUAUUACAAGCAAGAUCCCACAUGAGGAUCACCCAUGUGCUCGUCUUAUAAGGUACUGUGACGAAAGUCACGGUACC [Sensor 3, v1 - 100] (Eterna round: R96, puzzle: Sensor v3, turn-off variant 1) | – | – | – | 26.3 | 24.6 | 547
UUAUUACAAGCAAGAUCCCACAUGAGGAUCACCCAUGUGCUCGUCUUAUAAGGUACUGUGACGAAAGUCACGGUACC [Sensor 3, v1 - 100] (puzzle: Sensor v3, turn-off variant 1) | 25.8 | 701 | 24.7 | – | – | –
UUAUUAUAUGUAGGAUAUGCAUAUUGUUGUUAUGCAGAAGGACAUGAGGAUCACCCAUGUAUAUUGUUGUUGUAUAUUAUAUAU [Title] (Eterna round: R96, puzzle: Exclusion NG 1) | – | – | – | 33.2 | 23.3 | 22.6
UUAUUAUAUGUAGGAUAUGCGUAUUGUUGUUAUGCAGAAGGACAUGAGGAUCACCCAUGUAUAUUAUUGUUAUAUAUUAUAUAU [Title] (Eterna round: R96, puzzle: Exclusion NG 1) | – | – | – | 43 | 25.3 | 20.2
UUAUUCAGAGGAUAUGCGCAUAGAUAAGACUUUUUUUUUUAACAUGAGGAUCACCCAUGUAGAAGGCUGUAAUU [Ex2 #55] (Eterna round: R97, puzzle: Exclusion 2) | – | – | – | 18.1 | 21 | –
UUAUUGUAUGUAGGAUAUGCGUAUUAUUAUUGGGCAGAAGGACAUGAGGAUCACCCAUGUAUGUUGUUGUUAUAUAUUAUAUAU [Title] (Eterna round: R96, puzzle: Exclusion NG 1) | – | – | – | 61 | 47.6 | 39.3
UUAUUGUGAGGAUAUCAGGUGUGCUAGCGUACUGGUACAUCUGAGAAGGCACAUGAGGAUCACCCAUGUUCCUU [JL-ex4-3.26 Brourd mod] (puzzle: Exclusion 4) | – | 14.4 | – | – | – | –
UUCAGUCUAGAGGAUAUGCUGGAUUAAUAUCUGGCAGAAGGCUGGACAUGAGGAUCACCCAUGUAAAUACUACC [Omei Ex6 A5] (Eterna round: R97, puzzle: Exclusion 6) | – | – | – | 356 | 68.3 | –
